The target of this test is anti-Fel d1 mAB 6F9. In words: sandwich ELISA: mAB 6F9 coated, Fel d1 protein in doubling dilutions 80-0.16 ng/ml, detected with biotinylated mAB 3E4; Fel d1 (ng/ml) at OD50%. For orientation: An ELISA detects its analyte on a solid surface through an enzyme-linked reagent.

The EC50 is the concentration giving half of the maximal effect. A high value points to a less potent agent.

With “natural Fel d1 (from UniProt P30440 18-109)”, the concentration giving a half-maximal response (EC50) amounted to 7.2 ng/mL.

For the origin of these results see US20130344098A1.
